Test results taken from the supplement of paper PMC7125110.
± gives the standard error. For some of these results: Variants at the floor of the assay were thinned out.

B1: glmS ribozyme (parent)
chain: AUAAAAGCGCCAGAACUACAGAAAUGUAGUUGACGAGGAGGAGGUUUAUCGAAUUUUCGGCGGAUGCCUCCAAA

Tests used:
Settings in all cases: with glucosamine-6-phosphate
[1] = variants of: B1; test: kcat; higher = faster cleavage; RNA array
Outline: (§1)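 Tracking of barcoded ribozyme variants used a hybridised Cy3 probe at 37 °C, after in situ transcription by E. coli RNA polymerase on sequenced MiSeq chips. The flowed solution held 40 μM to 10 mM glucosamine-6-phosphate in HEPES/KCl/Mg(OAc)2 buffer, and imaging ran over ~14 h. kobs was taken from exponential decay fits of normalised per-tile medians, and kcat and KM from weighted Michaelis–Menten fits.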

[2] = variants of: B1; test: KM; higher = weaker cofactor use; RNA array
Outline: as §1

[3] = variants of: B1; test: self-cleavage kobs at 640 uM GlcN6P; higher = faster cleavage; RNA array
Outline: as §1

[4] = variants of: B1; test: self-cleavage kobs at 2500 uM GlcN6P; higher = faster cleavage; RNA array
Outline: as §1

[5] = variants of: B1; test: self-cleavage kobs at 10000 uM GlcN6P; higher = faster cleavage; RNA array
Outline: as §1

[6] = variants of: B1; test: self-cleavage kobs at 160 uM GlcN6P; higher = faster cleavage; RNA array
Outline: as §1

[7] = variants of: B1; test: self-cleavage kobs at 40 uM GlcN6P; higher = faster cleavage; RNA array
Outline: as §1

| Variant | kcat [1] [s⁻¹] | KM [2] [µM] | self-cleavage kobs at 640 uM GlcN6P [3] [s⁻¹] | self-cleavage kobs at 2500 uM GlcN6P [4] [s⁻¹] | self-cleavage kobs at 10000 uM GlcN6P [5] [s⁻¹] | self-cleavage kobs at 160 uM GlcN6P [6] [s⁻¹] | self-cleavage kobs at 40 uM GlcN6P [7] [s⁻¹] |
| --- | --- | --- | --- | --- | --- | --- | --- |
| AUAAAAGCGCCAGAACUACAGAAAUGUAGCUGACGAGGAGGAGGUUUAUCGAAUUUUCGGCGGAUGCUUCCAAA [U30C C68U] | 0.000128 ± 8.6e-06 | 1210 ± 270 | 4.07e-05 ± 6.8e-06 | 9.82e-05 ± 1.1e-05 | 0.000111 ± 8.5e-06 | – | – |
| AUAAAAGCGCCAGAACUACAGAAAUGUAGCUGACGAGGAGGAGGUUUAUCGAAUUUUCGGCGGAUGCAUCCAAA [U30C C68A] | 3.05e-05 ± 8e-06 | – | – | 3.62e-05 ± 1.1e-05 | – | – | – |
| AUAAAAGCGCCAGAACUACAGAAAUGUAGCUGACGAGGAGGAGGUUUAUCGAUUUUUCGGCGGAUGCCUCCAAA [U30C A53U] | 0.000197 ± 3.1e-05 | 1290 ± 540 | 5.5e-05 ± 1e-05 | 0.000158 ± 1.5e-05 | 0.000159 ± 1.8e-05 | – | – |
| AUAAAAGCGCCAGAACUACAGAAAUGUAGCUGACGAGGAGGAGGUUUAUCGAAUUUUAGGCGGAUGCCUCCAAA [U30C C58A] | 2.21e-05 ± 6e-06 | – | – | 2.92e-05 ± 1.1e-05 | – | – | – |
| AUAAAAGCGCCAGAACUACAGAAAUGUAGCUGACGAGGCGGAGGUUUAUCGAAUUUUCGGCGGAUGCCUCCAAA [U30C A39C] | 0.000139 ± 1.1e-05 | 4210 ± 820 | – | 5.33e-05 ± 1e-05 | 9.75e-05 ± 9.4e-06 | – | – |
| AUAAAAGCGCCAGAACUACAGAAAUGUAGCUGACGAGGAGGAGGUUUAUCGAAGUUUCGGCGGAUGCCUCCAAA [U30C U54G] | 0.000209 ± 1.3e-05 | 411 ± 120 | 0.000118 ± 2.8e-05 | 0.00018 ± 3.5e-05 | 0.000203 ± 2.5e-05 | 9.02e-05 ± 4.2e-05 | – |
| AUAAAAGCGCCAGAACUACAGAAAUGUAGCUGACGAGGAGGAGGUUUAUCGAAUUUUCGGCGGAUGCCUGCAAA [U30C C70G] | 5.67e-05 ± 5.3e-06 | – | 6.49e-05 ± 1.1e-05 | 4.88e-05 ± 9e-06 | 5.52e-05 ± 1e-05 | 5.73e-05 ± 1.4e-05 | – |
| AUAAAAGCGCCAGAACUACAGAAAUGUAGCUGACGAGGAGGAGGUUUAUCGAAUUUUCGGCGGAUGCCUUCAAA [U30C C70U] | 0.000529 ± 0.00014 | 1890 ± 790 | 0.000125 ± 1e-05 | 0.000261 ± 2.9e-05 | 0.000536 ± 5.9e-05 | 6.03e-05 ± 7.8e-06 | – |
| AUAAAAGCGCCAGAACUACAGAAAUGUAGCUGACGAGGAGGAGGUUUAUCGAAUUUUCGGCGGAUGCCUCAAAA [U30C C71A] | 9.39e-05 ± 4.7e-06 | 1300 ± 180 | 3.17e-05 ± 8.4e-06 | 6.1e-05 ± 9.3e-06 | 8.36e-05 ± 1.3e-05 | – | – |
| AUAAAAGCGCCAGAACUACAGAAAUGUAGCUGACGAGGAGGAGGUCUAUUGAAUUUUCGGCGGAUGCCCCCAAA [U30C U46C C50U U69C] | 1.66e-05 ± 5e-06 | – | – | – | – | – | – |
| AUAAAAGCGCCAGAACUACAGAAAUGUAGCUGACGAGGAGGGGGUUUAUCGAAUUUUCGGCGGAUGCCUCCAAA [U30C A42G] | 0.000456 ± 7.6e-05 | 1310 ± 520 | 0.00012 ± 3.3e-05 | 0.000368 ± 9.6e-05 | 0.0004 ± 5.9e-05 | 7.93e-05 ± 2.8e-05 | – |
| AUAAAAGCGCCAGAACUACAGAAAUGUAGCUGACGAGGAGGAGGUUUAUCGGAUUUUCGGCGGAUGCCUCCAAA [U30C A52G] | 1.33e-05 ± 2.9e-06 | – | – | – | – | – | – |
| AUAAAAGCGCCAGAACUACAGAAAUGUAGCUGACGAGGAGGAGGUUUAUCGAAUUUUUGGCGGAUGCCUUCAAA [U30C C58U C70U] | 3.42e-05 ± 1.3e-05 | – | 5.85e-05 ± 2.1e-05 | 3.95e-05 ± 1.9e-05 | – | – | – |
| AUAAAAGCGCCAGAACUACAGAAAUGUAGCUGACGAAGAGGAGGUUUAUCGAAUUUUCGGCGGAUGCCUCCAAA [U30C G37A] | 2.63e-05 ± 1.2e-06 | 710 ± 290 | – | – | 2.44e-05 ± 9e-06 | – | – |
| AUAAAAGCGCCAGAACUACAGAAAUGUAGCUGACGAGGAGGAGGUUUAUCGAAUUUUCGGCGGGUGCCUCCAAA [U30C A64G] | 0.000351 ± 3.3e-05 | 1100 ± 200 | 0.000122 ± 1.4e-05 | 0.000267 ± 3e-05 | 0.000293 ± 4.9e-05 | 4.88e-05 ± 1.1e-05 | – |
| AUAAAAGCGCCAGAACUACAGAAAUGUAGCUGACGAGGAGAAGGUUUAUCGAAUUUUCGGCGGAUGCCUCCAAA [U30C G41A] | 1.28e-05 ± 1.8e-06 | – | < 1e-05 | – | – | – | – |
| AUAAAAGCGCCAGAACUACAGAAAUGUAGCUGACGAGGAGGAGGUUUAUCGAAUUUUCGGCGGAUGUCUCCAAA [U30C C67U] | 0.0001 ± 1.3e-05 | 927 ± 390 | 3.56e-05 ± 7.9e-06 | 8.48e-05 ± 1.8e-05 | 9.05e-05 ± 1e-05 | 3.33e-05 ± 1.3e-05 | – |
| AUAAAAGCGCCAGAACUACAGAAAUGUAGCUGACGAGGAGGAGGUUUAUCGAAUUUUCGGCGGAUGGCUCCAAA [U30C C67G] | 1.07e-05 ± 2.3e-06 | – | – | – | – | – | < 1e-05 |
| AUAAAAGCGCCAGAACUACAGAAAUGUAGCUAACGAGGAGGAGGUUUAUCGAAUUUUCGGCGGAUGCCUCCAAA [U30C G32A] | 0.00241 ± 0.00034 | 3840 ± 740 | 0.000321 ± 4.3e-05 | 0.000932 ± 8.8e-05 | 0.00181 ± 0.00026 | 0.000106 ± 1.2e-05 | – |
